Assay results taken from patent publication US20160367497A1, “METHODS AND COMPOSITIONS FOR TREATING NEUROPATHIES” (Washington University, priority 2007, published 2016).

B1: NmPRT: nicotinamide phosphoribosyltransferase (protein, UniProt P43490 1-491, looked up)
Nicotinamide …: MNPAAEAEFNILLATDSYKVTHYKQYPPNTSKVYSYFECREKKTENSKLRKVKYEETVFYGLQYILNKYLKGKVVTKEKIQEAKDVYKEHFQDDVFNEKGWNYILEKYDGHLPIEIKAVPEGFVIPRGNVLFTVENTDPECYWLTNWIETILVQSWYPITVATNSREQKKILAKYLLETSGNLDGLEYKLHDFGYRGVSSQETAGIGASAHLVNFKGTDTVAGLALIKKYYGTKDPVPGYSVPAAEHSTITAWGKDHEKDAFEHIVTQFSSVPVSVVSDSYDIYNACEKIWGEDLRHLIVSRSTQAPLIIRPDSGNPLDTVLKVLEILGKKFPVTENSKGYKLLPPYLRVIQGDGVDINTLQEIVEGMKQKMWSIENIAFGSGGGLLQKLTRDLLNCSFKCSYVVTNGLGINVFKDPVADPNKRSKKGRLSLHRTPAGNFVTLEEGKGDLEEYGQDLLHTVFKNGKVTKSYSFDEIRKNAQLNIELEAAHH
B2: NMNAT1: nicotinamide mononucleotide adenylyltransferase1, lentivirus expressed (protein, UniProt Q9EPA7 1-285, looked up)
Nicotinamide/nicotinic acid …: MDSSKKTEVVLLACGSFNPITNMHLRLFELAKDYMHATGKYSVIKGIISPVGDAYKKKGLIPAHHRIIMAELATKNSHWVEVDTWESLQKEWVETVKVLRYHQEKLATGSCSYPQSSPALEKPGRKRKWADQKQDSSPQKPQEPKPTGVPKVKLLCGADLLESFSVPNLWKMEDITQIVANFGLICITRAGSDAQKFIYESDVLWRHQSNIHLVNEWITNDISSTKIRRALRRGQSIRYLVPDLVQEYIEKHELYNTESEGRNAGVTLAPLQRNAAEAKHNHSTL

Legend:
[1] = tested on: DRG neuronal explant cultures; test: in vitro Wallerian degeneration assay, DRG explant neurite transection; assay type: cell-based, mouse; details: lentivirus-mediated expression in DRG neurons
Experimental: (§1) To identify the mechanism of delayed axonal degeneration mediated by the Wlds protein, we employed an in-vitro Wallerian degeneration model. Primary DRG explant neurons were infected with lentivirus expressing the appropriate proteins, and axons were injured by either removal of the neuronal cell body (transection) or growth in vincristine (toxic).
Mouse DRG explants from E12.5 embryos were cultured in the presence of 1 nM nerve growth factor. Non-neuronal cells were removed from the cultures by adding 5-fluorouracil to the culture medium. Transection of neurites was performed at 10-20 DIV using an 18-gauge needle to remove the neuronal cell bodies. […]
Quantitative analysis of axonal degeneration was performed as previously described (Zhai, et al., Neuron 39:217-25, 2003). […] Axons with a fragmented, non-refractile appearance were designated as “degenerated.” At each time point, at least 200 singly distinguishable axons were blindly scored from several randomly taken images of each culture. […] For calculations of neurite-covered area, digitally captured images from quadruplicate samples of two independent experiments were analyzed using analysis 3.1 software (Soft Imaging System, Lakewood, Colo.).
Cell culture, in vitro axotomy, and quantification of axonal degeneration. […] Quantitative analysis of neurite degeneration was performed.

[2] = tested on: DRG neuronal explant; test: vincristine-induced axonal degeneration in DRG neuronal explants; assay type: cell-based, mouse; details: 0.5 μM vincristine for up to 9 d; lentiviral expression
Experimental: as §1
Quantitative analysis of axonal degeneration was performed as previously described (Zhai, et al., Neuron 39:217-25, 2003). Briefly, the cultures were examined using phase contrast microscopy at the indicated times. Axons with a fragmented, non-refractile appearance were designated as “degenerated.” At each time point, at least 200 singly distinguishable axons were blindly scored from several randomly taken images of each culture. Each condition was tested in triplicate explants in each experiment. Results were obtained from 2-4 independent experiments for each condition. Statistical analysis was performed by Student's T test. For calculations of neurite-covered area, digitally captured images from quadruplicate samples of two independent experiments were analyzed using analysis 3.1 software (Soft Imaging System, Lakewood, Colo.). […]

| Molecule | axonal/neurite degeneration after transection [1] | axon length and refractility [2] |
| --- | --- | --- |
| B1 | shows axonal protection |  |
| B2 |  | maintained their original length and refractility |
